Consider two substances from PMC12884264.

As usually defined, the Kd is the concentration at which binding is half-saturated. A low value points to a tighter complex.

For experiment [1], the target named is computationally designed GFP(+16)BE (positive charges mainly at both ends of the barrel) [GFP: P42212]. Kind of experiment: SEC. Background: SEC sorts molecules by how far they enter the pores of the column.
Experiment [2] deals with supercharged green fluorescent protein GFP(+28) [GFP: P42212]. The experiment is described as follows: SEC.
In experiment [3] the target is supercharged green fluorescent protein GFP(+36) [GFP: P42212]. The experiment is described as follows: SEC.
Experiment [4] concerns the target Archaeoglobus fulgidus ferritin, wildtype (Archaeoglobus fulgidus) (UniProt O29424). Kind of experiment: time-resolved fluorescence anisotropy.
The target is the same in experiment [5]. Kind of experiment: SEC + other: UV/Vis absorbance.

With “Archaeoglobus fulgidus ferritin, wildtype (from UniProt O29424 1-173) (natural protein)”, the Kd in experiment [1] came to 51.5 µM; in experiment [2], 36.7 µM; in experiment [3], 22.7 µM. Also, in experiment [3], the stoichiometry N (GFP per 24 mer) is 3.
In experiment [4], “supercharged green fluorescent protein GFP(+36) (from UniProt P42212 1-238)” displayed a stoichiometry N (AfFtn2 per GFP(+36)) of 12 and a stoichiometry N (GFP(+36) per cage) of 1. Further, in experiment [5], the stoichiometry N (GFP per ferritin cage) lay within 2 to 3, the stoichiometry N (GFP(+36) per 24 mer ferritin) was found to be 0.7, the stoichiometry N (GFP(+36) per AfFtn24) stood at 1.2 and the stoichiometry N (GFP(+36) per ferritin 24 mer) was 4 to 5.
